According to patent US20240287172A1 (SCIRHOM, published 2024):
Residue numbers refer to the chain shown, from its start.

Target: T1, hiR2-FL-M534-T7 (deletion of M534) (human, UniProt Q6PJF5 1-856)
T1 construct: single amino acid deletion
T1 sequence: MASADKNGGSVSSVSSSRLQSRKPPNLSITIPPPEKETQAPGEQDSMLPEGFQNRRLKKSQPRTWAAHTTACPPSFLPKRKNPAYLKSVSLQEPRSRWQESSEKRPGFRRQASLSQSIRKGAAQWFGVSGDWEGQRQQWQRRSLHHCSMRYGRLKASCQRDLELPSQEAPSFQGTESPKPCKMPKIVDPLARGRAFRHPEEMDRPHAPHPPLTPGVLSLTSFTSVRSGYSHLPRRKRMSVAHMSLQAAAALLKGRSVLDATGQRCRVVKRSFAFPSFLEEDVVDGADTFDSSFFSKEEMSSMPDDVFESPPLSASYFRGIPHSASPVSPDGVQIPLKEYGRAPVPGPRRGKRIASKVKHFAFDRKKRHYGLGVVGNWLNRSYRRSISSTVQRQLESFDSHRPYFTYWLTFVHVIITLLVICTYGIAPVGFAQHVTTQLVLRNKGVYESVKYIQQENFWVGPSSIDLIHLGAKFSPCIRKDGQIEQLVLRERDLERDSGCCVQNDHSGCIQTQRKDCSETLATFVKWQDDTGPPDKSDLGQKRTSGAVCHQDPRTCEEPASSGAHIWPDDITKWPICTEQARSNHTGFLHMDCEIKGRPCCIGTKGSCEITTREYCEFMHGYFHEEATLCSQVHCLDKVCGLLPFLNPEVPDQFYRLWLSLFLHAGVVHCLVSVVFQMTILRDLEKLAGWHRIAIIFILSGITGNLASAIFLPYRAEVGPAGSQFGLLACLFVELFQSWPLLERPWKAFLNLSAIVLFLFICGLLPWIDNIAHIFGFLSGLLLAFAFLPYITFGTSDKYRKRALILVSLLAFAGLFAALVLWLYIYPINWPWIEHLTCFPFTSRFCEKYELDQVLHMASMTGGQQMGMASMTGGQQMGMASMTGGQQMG
Experiment: FACS, MEF-DKO cells, 3 µg/ml
Excerpt: In brief, immortalized MEF-DKO-hiR2-FL-G498A-T7, MEF-DKO-hiR2-FL-Q502R-T7, MEF-DKO-hiR2-FL-I509V-T7, MEF-DKO-hiR2-FL-Q512S-T7, MEF-DKO-hiR2-FL-R513E-T7, MEF-DKO-hiR2-FL-K514E-T7, MEF-DKO-hiR2-FL-D515E-T7, MEF-DKO-hiR2-FL-E518S-T7, MEF-DKO-hiR2-FL-T522V-T7, MEF-DKO-hiR2-FL-F523W-T7, MEF-DKO-hiR2-FL-Q527P-T7, MEF-DKO-hiR2-FL-D528I-T7, MEF-DKO-hiR2-FL-D529H-T7, MEF-DKO-hiR2-FL-T530P-T7, MEF-DKO-hiR2-FL-G531S-T7, MEF-DKO-hiR2-FL-P532A-T7, MEF-DKO-hiR2-FL-M534-T7, MEF-DKO-hiR2-FL-D535-T7, MEF-DKO-hiR2-FL-K536-T7, MEF-DKO-hiR2-FL-S537E-T7, MEF-DKO-hiR2-FL-D538L-T7, MEF-DKO-hiR2-FL-L539A-T7, MEF-DKO-hiR2-FL-Q541H-T7, MEF-DKO-hiR2-FL-T544Q-T7, MEF-DKO-hiR2-FL-S545F-T7, MEF-DKO-hiR2-FL-A547S-T7, MEF-DKO-hiR2-FL-T555V-T7, MEF-DKO-hiR2-FL-E557D-T7, MEF-DKO-hiR2-FL-A560S-T7 and MEF-DKO-hiR2-FL-S562E-T7 cells were harvested with 10 mM EDTA in PBS, washed and resuspended in FACS buffer (PBS, 3% FBS, 0.05% sodium azide), and seeded in Nunc U-bottom 96-well plates (Thermo Fisher Scientific, USA) at approximately 3×10⁵ cells per well. To pellet cells and remove supernatants, the plates were centrifuged at 1,500 rpm and 4° C. for 3 minutes. For primary staining, cells were resuspended in 100 μl per well of either FACS buffer alone (controls) or the purified antibodies 3, 5, 16, 22, 34, 42, 43, 44, 48, and 50 of the invention at 3 μg/ml in FACS buffer and incubated on ice for 1 hour. Afterwards, plates were centrifuged at 1,500 rpm and 4° C. for 3 minutes and washed twice with 200 μl per well of FACS buffer. For secondary staining, cells were spun down and resuspended in 100 μl per well of PE-conjugated goat anti-mouse IgG F(ab′)2 detection fragment (Dianova, Germany) diluted 1:100 in FACS buffer. Protected from light, the cell suspensions were incubated on ice for 1 hour. Plates were then centrifuged at 1,500 rpm and 4° C. for 3 minutes and washed three times with 200 μl per well of FACS buffer. Finally, cells were resuspended in 150 μl per well of FACS buffer and analyzed using a BD Accuri™ C6 Plus flow cytometer (Becton Dickinson, Germany).

B1: antibody 16 (antibody, V domains shown)
VH: QVTLKESGPGILQPSQTLSLTCSFSGFSLSTFALGVGWIRQPSGRGLEWLAHIWWDDDKYYNPALKSRLTISKDTSKNHVFLKIANVDTADTATYYCARITTYYYGMDYWGQGTSVTVSS
VL: DIVLSQSPATLSVTPGDSVSLFCRASQSIGNHLHWYQQESHASPRLLIKYASQSISGIPSRFSGSGSGTDFTLSINSVETEDFGMYFCQQSYNWPLTFGAGTKLELK
notes: mouse IgG, kappa light chain; also called clone #16; purified antibody 16
loss of binding vs wild type: ≥ 95%

B2: antibody 3 (antibody, V domains shown)
VH: QVTLKESGPGILQPSQTLSLTCSFSGFSLTTFAMGIGWVRQPSGKGLEWLAHIWWDGEKYNNPVLKSRLTISKDTSKNQVFLRIANVDTPDTATYYCARISSIYYIIDNWGQGTSVTVSS
VL: B1 VL with S5T, D17H, F22S, G30S, H32N, Q38K, E39K, A42E, A51V
notes: mouse IgG, kappa light chain; also called clone #3; purified antibody 3
loss of binding vs wild type: ≥ 95%

B3: antibody 5 (antibody, V domains shown)
VH: QVTLKESGPGILQPSQTLSLTCSFSGFSLSTFGMGVGWIRQPSGKGLEWLAHIWWDDEKYYNSALKSRLTISKATSKNQAFLKIANVDTADTATYYCARISNYGSNYWYFNVWGTGTTVTVSS
VL: QVVLTQSPALMSASPGEKVTMTCSAGSSVSCMYWYQQKPGSSPRVLIYDTSNLASGVPARFTGSGSGTSYSLTISRMEAEDAASYYCQQWNSYPLTFGAGTKLELK
notes: mouse IgG, kappa light chain; also called clone #5; purified antibody 5
loss of binding vs wild type: ≥ 95%

B4: antibody 44 (antibody, V domains shown)
VH: B3 VH with G44E, E58D, S63P, A74D, A80I, A85T, D91E, A98S, S101G, N111D
VL: QIVLTQSPAVMSASPGEKVTMTCTASSSVYYMYWYQQTPGSSPRLLIYDTSNLASGVPVRFSGSGSGTSYSLTISRMEAEDAATYYCQQWNTYPLTFGAGTKLELK
notes: mouse IgG, kappa light chain; also called clone #44; purified antibody 44
loss of binding vs wild type: ≥ 95%

B5: antibody 43 (antibody, V domains shown)
VH: B3 VH with T3A, P42S, H52N, E58D, S63P, A74D, T75A, S101G, N111D
VL: QIVLTQSPAIMSASPGERVTMTCSANSRISYMYWYQQKPGSSPRLLIYDTSNLASGVPVRFSGSGSGTSYSLTISRMEAEDAATYNCQQWSSYPLTFGAGTKLELK
notes: mouse IgG, kappa light chain; also called clone #43; purified antibody 43
loss of binding vs wild type: ≥ 95%

B6: antibody 42 (antibody, V domains shown)
VH: B3 VH with F24L, M34R, S63P, A74D, A80V, K83R, S101Q, N111D
VL: B5 VL with Q1L, R18K, S24G, N26T, Y33F, L45V, M77V, A82V, N86Y, S91N
notes: mouse IgG, kappa light chain; also called clone #42; purified antibody 42
loss of binding vs wild type: ≥ 95%

B7: antibody 22 (antibody, V domains shown)
VH: B3 VH with A80V
VL: B3 VL with C31Y, S84T
notes: mouse IgG, kappa light chain; also called clone #22; purified antibody 22
loss of binding vs wild type: ≥ 95%

B8: antibody 34 (antibody, V domains shown)
VH: QVTLKESGPGILQPSQTLSLTCSFSGFSLSTFSLGVGWIRQSSGKGLEWLAHIWWDDEKYYNPALKSRLTISKDTSKNQVFLKIANVDAADTATYYCARAYYSKSYYALDYWGQGTSVTVSS
VL: DIQMTQSPSSLSASLGERVSLTCRASQEISGYLSWLQQKPDGTIKRLIYAASTLDSGVPKRFSGSRSGSDYSLAISSLESEDFADYYCLQYANFPFTFGSGTKLEIK
notes: mouse IgG, kappa light chain; also called clone #34; purified antibody 34
loss of binding vs wild type: ≥ 95%
